Results on one substance are retold here after article PMC2114734.

The target of this experiment is High affinity thrombin receptor of NIL hamster fibroblasts (Syrian hamster (endogenous in NIL cells)). Briefly: radioligand binding.

“Human alpha-thrombin (from UniProt P00734 364-622; P00734 364-622) (enzyme)” registered a specific 125I-thrombin binding (cpm/ug protein) of 439.
